Results on four substances are retold here after patent publication US20070122429A1, “Designed antigens to elicit neutralizing antibodies against sterically restricted antigen and method of using same” (priority 2005, published 2007).

A value given as a limit tells only on which side of the number the result lay.

Assay [1] addresses HIV-1 JRFL Env (gp41 N-trimer region) (HIV-1 JRFL). Nature of the assay: cell-based or functional assay.
The target of assay [2] is HIV-1 HXB2 Env (gp41 N-trimer region) (HIV-1 HXB2) (UniProt P04578). Nature of the assay: cell-based or functional assay.

On to BPTI-H6 (from UniProt P00974 36-93), for which the no inhibition of viral infectivity (JRFL Env) up to the stated concentration in assay [1] is over 1 µM. This substance also came in with a no inhibition of cell-cell fusion or viral infectivity (HXB2 Env) up to the stated concentration in assay [2] of over 1 µM.
As for GFP-H6, the no inhibition of viral infectivity (JRFL Env) up to the stated concentration in assay [1] was over 1 µM. This substance also displayed a no inhibition of cell-cell fusion or viral infectivity (HXB2 Env) up to the stated concentration in assay [2] of over 1 µM.
In assay [1], MBP-H6 (from UniProt P0AEX9 27-392) displayed a no inhibition of viral infectivity (JRFL Env) up to the stated concentration of over 10 µM. In assay [2], this substance had a no inhibition of cell-cell fusion or viral infectivity (HXB2 Env) up to the stated concentration of over 1 µM.
In assay [1], “Ub-C37 (from UniProt P0CG48 1-76; P04578 625-661)” registered an IC50, viral infectivity JRFL of 37.7 nM. The same substance returned an IC50, viral infectivity HXB2 in assay [2] of 6.8 nM.
